Test results as given in patent US9617309B2, “Proline-locked stapled peptides and uses thereof” (President and Fellows of Harvard College, priority 2012, dated 2017).
Numbered stars: 1 amine (or outer) side, 2 acyl side, 3 side chain; on linkers, the order of the positions; unused ones are H or OH. Bridge positions count the residues as written; N and C are the ends. Square brackets hold non-standard residues; d marks the D form. Ends that are not written are not given here. Peptide text beside a SMILES is read from it. * marks the point of attachment. PR3 = (R)-N-(acetyl)-2-(2'-propenyl)proline, C=CC[C@@]1(C(=O)*)CCCN1C(C)=O; S3 = α-methyl,α-allylglycine, C=CC[C@](C)(N[*:1])C(=O)[*:2]; X1 = O=C([C@]1(CCCC=[*:3])CCCN1[*:1])[*:2]; X2 = O=C([C@]1(CC=[*:3])CCCN1[*:1])[*:2]; X3 = C[C@@](CC=[*:3])(N[*:1])C(=O)[*:2]; S8 = C=CCCCCCC[C@](C)(N)C(=O)O; R5 = C=CCCC[C@@](C)(N)C(=O)O; S5 = C=CCCC[C@](C)(N)C(=O)O

experiment: CD measurements of peptide conformation and % helicity; format: physicochemical; conditions: 20° C.
Source text: The conformation of peptide 1 and 2 was investigated by CD measurements (FIG. 4).
(Peptide 1 of FIG. 2 corresponds to Peptide “1)” of FIG. 17, while Peptide 2 of FIG. 2 corresponds to Peptide “4)” of FIG. 17).

Row | Compound | % helicity [%] | conformation by CD
1 | peptide 2: Pro-locked peptide with partial basic region of GCN4, crosslink between PR3 and S3; Peptide "4)" of FIG. 17 (SEQ ID NO:2) ([PR3]AA[S3]KRARNTEAAW; staple 1-4; also: olefin Z-isomer) | 67 | (X-helix

experiment: Variable temperature CD measurement of α-helix stability; format: physicochemical; conditions: 20° C. to 90° C.; 50 mM sodium phosphate buffer (pH 8.0), alone and with 100 mM NaCl, 1 M NaCl, and 10% TFE
Source text: These observations indicate that the proline stapled peptides adopt an α-helix conformation with extraordinary stability.

Row | Compound | α-helix conformation on heating
2 | peptide 2: Pro-locked peptide with partial basic region of GCN4, crosslink between PR3 and S3; Peptide "4)" of FIG. 17 (SEQ ID NO:2) ([PR3]AA[S3]KRARNTEAAW; staple 1-4; also: olefin Z-isomer) | completely maintained

experiment: circular dichroism; conditions: 50 mM sodium phosphate (stated for FIG. 5; assumed for the rest); pH 8.0; 20 °C

Row | Compound | helicity [%]
3 | CC(=O)N1CCC[C@]12C/C=C\C[C@@](C)(C(=O)N[C@@H](CCCCN)C(=O)N[C@@H](CCCNC(=N)N)C(=O)N[C@@H](C)C(=O)N[C@@H](CCCNC(=N)N)C(=O)N[C@@H](CC(N)=O)C(=O)N[C@H](C(=O)N[C@@H](CCC(=O)O)C(=O)N[C@@H](C)C(=O)N[C@@H](C)C(=O)N[C@@H](Cc1c[nH]c3ccccc13)C(N)=O)[C@@H](C)O)NC(=O)[C@H](C)NC(=O)[C@H](C)NC2=O (Ac-[X2]AA[X3]KRARNTEAAW-NH2; staple (Z) 1-4) | 66
4 | CC(=O)N1CCC[C@]12C/C=C\CCC[C@@](C)(C(=O)N[C@@H](CCCCN)C(=O)N[C@@H](CCCNC(=N)N)C(=O)N[C@@H](C)C(=O)N[C@@H](CCCNC(=N)N)C(=O)N[C@@H](CC(N)=O)C(=O)N[C@H](C(=O)N[C@@H](CCC(=O)O)C(=O)N[C@@H](C)C(=O)N[C@@H](C)C(=O)N[C@@H](Cc1c[nH]c3ccccc13)C(N)=O)[C@@H](C)O)NC(=O)[C@H](C)NC(=O)[C@H](C)NC2=O (Ac-[X2]AA[S5]KRARNTEAAW-NH2; staple (Z) 1-4) | 44

same assay, conditions: 50 mM sodium phosphate (stated for FIG. 5; assumed for the rest); pH 8.0; ns °C

Row | Compound | helicity [%]
5 | CC(=O)N1CCC[C@]12CC=CC[C@@](C)(C(=O)N[C@@H](CCCCN)C(=O)N[C@@H](CCCNC(=N)N)C(=O)N[C@@H](C)C(=O)N[C@@H](CCCNC(=N)N)C(=O)N[C@@H](CC(N)=O)C(=O)N[C@H](C(=O)N[C@@H](CCC(=O)O)C(=O)N[C@]1(C)CCCC=CCNC(=O)[C@H](Cc3c[nH]c4ccccc34)NC(=O)[C@H](C)NC1=O)[C@@H](C)O)NC(=O)[C@H](C)NC(=O)[C@H](C)NC2=O | 73
6 | CC(=O)N1CCC[C@]12CC=CC[C@@](C)(C(=O)N[C@@H](C)C(=O)N[C@@H](C)C(=O)N[C@@H](C)C(=O)N[C@@H](Cc1c[nH]c3ccccc13)C(N)=O)NC(=O)[C@H](C)NC(=O)[C@H](C)NC2=O (Ac-[X2]AA[X3]AAAW-NH2; staple 1-4) | 70
7 | CC(=O)N1CCC[C@]12CC=CC[C@@](C)(C(=O)N[C@@H](CCCCN)C(=O)N[C@@H](CCCNC(=N)N)C(=O)N[C@@H](C)C(=O)N[C@@H](CCCNC(=N)N)C(=O)N[C@@H](CC(N)=O)C(=O)N[C@H](C(=O)N[C@@H](CCC(=O)O)C(=O)N[C@]1(C)CCC=CCCNC(=O)[C@H](Cc3c[nH]c4ccccc34)NC(=O)[C@H](C)NC1=O)[C@@H](C)O)NC(=O)[C@H](C)NC(=O)[C@H](C)NC2=O | 80
8 | CC(=O)N[C@]1(C)CCCC=CCCCCCC[C@@](C)(C(=O)N[C@@H](CC(N)=O)C(=O)N[C@H](C(=O)N[C@@H](CCC(=O)O)C(=O)N[C@@H](C)C(=O)N[C@@H](C)C(=O)N[C@@H](Cc2c[nH]c3ccccc23)C(N)=O)[C@@H](C)O)NC(=O)[C@H](C)NC(=O)[C@H](CCCNC(=N)N)NC(=O)[C@H](CCCCN)NC(=O)[C@H](CC(C)C)NC(=O)[C@H](C)NC(=O)[C@H](C)NC1=O (Ac-[R5]AALKRA[S8]NTEAAW-NH2; staple 1-8) | 48
9 | CC(=O)N1CCC[C@]12CC=CC[C@@](C)(C(=O)N[C@@H](CCCCN)C(=O)N[C@@H](CCCNC(=N)N)C(=O)N[C@@H](C)C(=O)N[C@@H](CCCNC(=N)N)C(=O)N[C@@H](CC(N)=O)C(=O)N[C@H](C(=O)N[C@@H](CCC(=O)O)C(=O)N[C@]1(C)CCC=CCNC(=O)[C@H](Cc3c[nH]c4ccccc34)NC(=O)[C@H](C)NC1=O)[C@@H](C)O)NC(=O)[C@H](C)NC(=O)[C@H](C)NC2=O | 69
10 | CC(=O)N1CCC[C@]12CC=CC[C@@](C)(C(=O)N[C@@H](CCCCN)C(=O)N[C@@H](CCCNC(=N)N)C(=O)N[C@@H](C)C(=O)N[C@@H](CCCNC(=N)N)C(=O)N[C@@H](CC(N)=O)C(=O)N[C@H](C(=O)N[C@@H](CCC(=O)O)C(=O)N[C@]1(C)CC=CCNC(=O)[C@H](Cc3c[nH]c4ccccc34)NC(=O)[C@H](C)NC1=O)[C@@H](C)O)NC(=O)[C@H](C)NC(=O)[C@H](C)NC2=O | 64
11 | CC(=O)N1CCC[C@]12CCCC=CCCCCCC[C@@](C)(C(=O)N[C@@H](CC(N)=O)C(=O)N[C@H](C(=O)N[C@@H](CCC(=O)O)C(=O)N[C@@H](C)C(=O)N[C@@H](C)C(=O)N[C@@H](Cc1c[nH]c3ccccc13)C(N)=O)[C@@H](C)O)NC(=O)[C@H](C)NC(=O)[C@H](CCCNC(=N)N)NC(=O)[C@H](CCCCN)NC(=O)[C@H](CC(C)C)NC(=O)[C@H](C)NC(=O)[C@H](C)NC2=O (Ac-[X1]AALKRA[S8]NTEAAW-NH2; staple 1-8) | 61
12 | CC(=O)N1CCC[C@]12CC=CCCCC1(CCCC=CCCCCCC[C@@](C)(C(=O)N[C@@H](C)C(=O)N[C@@H](C)C(=O)N[C@@H](Cc3c[nH]c4ccccc34)C(N)=O)NC(=O)[C@H]([C@@H](C)O)NC(=O)[C@H](CC(N)=O)NC(=O)[C@H](CCCNC(=N)N)NC(=O)[C@H](C)NC(=O)[C@H](CCCNC(=N)N)NC(=O)[C@H](CCCCN)NC1=O)NC(=O)[C@H](C)NC(=O)[C@H](C)NC2=O (stereo partly drawn) | 81
13 | CC(=O)N1CCC[C@]12CC=CCCCC1(CCCC=CCCC[C@](C)(C(=O)N[C@@H](CC(N)=O)C(=O)N[C@H](C(=O)N[C@@H](CCC(=O)O)C(=O)N[C@@H](C)C(=O)N[C@@H](C)C(=O)N[C@@H](Cc3c[nH]c4ccccc34)C(N)=O)[C@@H](C)O)NC(=O)[C@H](C)NC(=O)[C@H](CCCNC(=N)N)NC(=O)[C@H](CCCCN)NC1=O)NC(=O)[C@H](C)NC(=O)[C@H](C)NC2=O (stereo partly drawn) | 47
14 | CC(=O)N1CCC[C@]12CC=CC[C@@](C)(C(=O)N[C@@H](CCCCN)C(=O)N[C@@H](CCCNC(=N)N)C(=O)N[C@@H](C)C(=O)N[C@@H](CCCNC(=N)N)C(=O)N[C@@H](CC(N)=O)C(=O)N[C@H](C(=O)N[C@@H](CCC(=O)O)C(=O)N[C@]1(C)CC=CCCNC(=O)[C@H](Cc3c[nH]c4ccccc34)NC(=O)[C@H](C)NC1=O)[C@@H](C)O)NC(=O)[C@H](C)NC(=O)[C@H](C)NC2=O | 64
